For five substances, response and Kd results are on record in paper PMC8329185.

For test [1], the target named is GFP-CPSF6. The test can be described thus: bead halo assay.
Test [2] addresses GFP-TRAP1. The test can be described thus: bead halo assay.
For test [3], the target named is GFP-NELF. The test can be described thus: bead halo assay.
Test [4] addresses GFP-RPS6KA3. The test can be described thus: bead halo assay.
For test [5], the target named is GFP-SRSF7. Kind of test: bead halo assay.
The target in test [6] is EIF5A (Homo sapiens) (UniProt P63241). Particulars: cited from earlier work.
The target of test [7] is SNUPN (Homo sapiens) (UniProt O95149). To be noted: cited from earlier work.
Sequence of SNUPN (Homo sapiens) (O95149 whole entry): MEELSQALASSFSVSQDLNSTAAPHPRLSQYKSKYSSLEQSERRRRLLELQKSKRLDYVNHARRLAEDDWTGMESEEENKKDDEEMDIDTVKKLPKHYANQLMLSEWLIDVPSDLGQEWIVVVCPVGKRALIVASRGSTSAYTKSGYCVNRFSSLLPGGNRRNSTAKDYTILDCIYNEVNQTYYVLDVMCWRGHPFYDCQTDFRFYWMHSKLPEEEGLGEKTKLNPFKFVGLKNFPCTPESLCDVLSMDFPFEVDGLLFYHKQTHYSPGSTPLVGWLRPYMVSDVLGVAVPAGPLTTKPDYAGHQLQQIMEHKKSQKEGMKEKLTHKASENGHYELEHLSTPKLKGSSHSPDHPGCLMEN

Sequence of Xpo4 (Q9C0E2 whole entry): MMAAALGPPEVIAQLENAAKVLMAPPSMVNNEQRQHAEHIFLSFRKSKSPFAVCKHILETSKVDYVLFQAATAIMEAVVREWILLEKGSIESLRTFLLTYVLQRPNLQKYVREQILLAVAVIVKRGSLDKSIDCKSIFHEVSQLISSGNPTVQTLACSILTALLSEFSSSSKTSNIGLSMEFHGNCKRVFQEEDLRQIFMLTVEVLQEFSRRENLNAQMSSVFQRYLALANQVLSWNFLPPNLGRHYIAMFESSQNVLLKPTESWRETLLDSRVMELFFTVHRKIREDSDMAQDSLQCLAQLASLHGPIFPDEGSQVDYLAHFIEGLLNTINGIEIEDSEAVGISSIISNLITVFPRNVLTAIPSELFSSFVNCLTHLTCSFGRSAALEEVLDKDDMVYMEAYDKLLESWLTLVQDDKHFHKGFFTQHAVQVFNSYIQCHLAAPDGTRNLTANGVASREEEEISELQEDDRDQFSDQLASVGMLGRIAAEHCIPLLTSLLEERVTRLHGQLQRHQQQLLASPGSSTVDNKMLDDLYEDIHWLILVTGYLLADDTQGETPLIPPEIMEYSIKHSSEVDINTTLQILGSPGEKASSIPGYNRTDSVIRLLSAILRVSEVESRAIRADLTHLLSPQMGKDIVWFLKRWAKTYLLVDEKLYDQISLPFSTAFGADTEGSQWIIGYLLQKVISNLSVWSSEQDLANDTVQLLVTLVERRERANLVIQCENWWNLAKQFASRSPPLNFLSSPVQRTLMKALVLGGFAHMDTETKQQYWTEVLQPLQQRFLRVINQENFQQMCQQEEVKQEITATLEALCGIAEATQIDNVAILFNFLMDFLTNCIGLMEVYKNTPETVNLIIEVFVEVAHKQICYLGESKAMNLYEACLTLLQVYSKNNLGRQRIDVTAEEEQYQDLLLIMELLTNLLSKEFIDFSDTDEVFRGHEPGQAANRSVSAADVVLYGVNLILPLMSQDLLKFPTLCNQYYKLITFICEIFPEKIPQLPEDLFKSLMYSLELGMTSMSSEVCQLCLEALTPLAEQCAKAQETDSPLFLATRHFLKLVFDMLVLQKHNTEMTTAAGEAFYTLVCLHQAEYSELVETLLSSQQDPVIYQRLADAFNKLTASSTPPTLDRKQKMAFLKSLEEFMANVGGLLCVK
Sequence of CRM1 (O14980 whole entry): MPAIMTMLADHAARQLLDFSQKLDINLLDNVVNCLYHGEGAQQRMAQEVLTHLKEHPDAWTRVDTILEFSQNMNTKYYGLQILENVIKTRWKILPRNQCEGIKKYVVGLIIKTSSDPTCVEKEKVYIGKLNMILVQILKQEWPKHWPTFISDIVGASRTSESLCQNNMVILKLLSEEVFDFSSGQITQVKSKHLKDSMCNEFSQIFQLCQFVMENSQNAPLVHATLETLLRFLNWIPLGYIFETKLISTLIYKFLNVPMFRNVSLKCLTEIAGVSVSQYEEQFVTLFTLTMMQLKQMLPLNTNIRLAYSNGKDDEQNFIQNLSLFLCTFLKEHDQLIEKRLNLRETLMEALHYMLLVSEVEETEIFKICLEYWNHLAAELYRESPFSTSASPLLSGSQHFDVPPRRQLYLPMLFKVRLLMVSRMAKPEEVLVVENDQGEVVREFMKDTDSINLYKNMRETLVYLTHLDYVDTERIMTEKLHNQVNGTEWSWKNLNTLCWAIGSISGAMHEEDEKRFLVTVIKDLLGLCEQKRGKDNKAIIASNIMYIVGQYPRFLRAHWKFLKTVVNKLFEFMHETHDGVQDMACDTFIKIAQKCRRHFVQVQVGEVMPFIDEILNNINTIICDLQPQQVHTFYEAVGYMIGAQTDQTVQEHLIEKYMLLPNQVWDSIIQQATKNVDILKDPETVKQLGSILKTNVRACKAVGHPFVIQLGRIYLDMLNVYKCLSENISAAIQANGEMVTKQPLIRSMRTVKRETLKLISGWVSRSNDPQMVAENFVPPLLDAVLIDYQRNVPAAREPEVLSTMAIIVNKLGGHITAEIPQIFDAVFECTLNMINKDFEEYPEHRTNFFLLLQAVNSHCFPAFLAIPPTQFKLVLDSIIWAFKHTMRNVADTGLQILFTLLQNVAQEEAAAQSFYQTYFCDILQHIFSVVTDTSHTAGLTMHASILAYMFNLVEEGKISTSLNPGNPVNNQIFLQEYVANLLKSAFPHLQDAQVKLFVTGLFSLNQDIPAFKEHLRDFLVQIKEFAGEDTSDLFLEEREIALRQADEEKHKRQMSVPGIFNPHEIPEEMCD
Sequence of EIF5A (Homo sapiens) (P63241 2-154): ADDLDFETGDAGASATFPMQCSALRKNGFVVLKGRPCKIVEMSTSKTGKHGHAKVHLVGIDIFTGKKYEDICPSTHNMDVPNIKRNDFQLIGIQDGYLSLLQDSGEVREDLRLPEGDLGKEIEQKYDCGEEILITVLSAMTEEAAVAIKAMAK

Take “GST-mCherry-TrnSR (WT) (from UniProt Q9Y5L0) E398R”: the response stood at 0.15 GFP/mCherry in test [1]; 1.11 GFP/mCherry in test [2]; 1.14 GFP/mCherry in test [3]; 0.09 GFP/mCherry in test [4]; 0.94 GFP/mCherry in test [5].
With “GST-mCherry-TrnSR (WT) (from UniProt Q9Y5L0) R671E”, the response was determined as 0.15 GFP/mCherry in test [1]; 1.16 GFP/mCherry in test [2]; 0.5 GFP/mCherry in test [3]; 0.37 GFP/mCherry in test [4]; 0.26 GFP/mCherry in test [5].
By Kd is commonly meant a measure of binding affinity in units of concentration. Turning to Xpo4 (from UniProt Q9C0E2), the Kd in test [6] was 2 nM.
On to CRM1 (from UniProt O14980), for which, in test [7], the Kd was 10 nM.
“GST-mCherry-TrnSR (WT) (from UniProt Q9Y5L0) D409R”: the response in test [1] was found to be 0.46 GFP/mCherry; in test [2], 1.35 GFP/mCherry; in test [3] it was 2.89 GFP/mCherry; in test [4], 0.13 GFP/mCherry; in test [5] it was 0.67 GFP/mCherry.
